Results as given in article PMC4174873.

Molecular target: CTBMPR (not stated | Human immunodeficiency virus 1 (HIV-1)) (UniProt P01556)
Experiment: SEC

**Q.** With CTBMPR (from UniProt P01556 22-124) as the substance, how does the stoichiometry N read?
**A.** Its stoichiometry N is 5.
